US20120288507A1 (Amgen, published 2012)

What was measured:
[1] = molecular target: T1, human WISE (human, UniProt Q6X4U4 24-206); assay: murine hybridoma antibodies; assay not given
T1 construct: Recombinant protein secreted from mammalian cells; also called hWISE; huWISE
T1 sequence: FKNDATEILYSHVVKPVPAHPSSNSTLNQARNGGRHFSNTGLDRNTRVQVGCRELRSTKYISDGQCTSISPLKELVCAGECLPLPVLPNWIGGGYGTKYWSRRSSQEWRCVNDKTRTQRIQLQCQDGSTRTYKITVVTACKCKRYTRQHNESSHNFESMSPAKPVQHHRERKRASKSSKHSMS

[2] = molecular target: T2, biotinylated recombinant human WISE (human, UniProt Q6X4U4 24-206, biotinylated (site not stated)); assay: Octet QK, crude conditioned medium, streptavidin biosensors with biotinylated human WISE
T2 construct: Same protein as m1, biotinylated; Used in the AlphaScreen with LRP6, in phage panning and on the Octet streptavidin biosensors; also called biotinylated huWise; biotinylated human WISE
T2 sequence: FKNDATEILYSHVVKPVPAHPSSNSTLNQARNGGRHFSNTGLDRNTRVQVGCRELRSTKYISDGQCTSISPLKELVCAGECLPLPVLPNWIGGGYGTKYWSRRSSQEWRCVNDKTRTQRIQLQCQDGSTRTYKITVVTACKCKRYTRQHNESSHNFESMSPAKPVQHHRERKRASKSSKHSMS
Method: Affinity maturation was performed on D14 IgG2 in order to improve the inhibitory activity. Every residue in all CDRs of heavy chain (31 positions) and light chain (29 positions) was mutated by randomized mutagenesis. Seven heavy chain mutations in 5 positions and ten light chain mutations in 6 positions that improved the binding to human WISE were identified by affinity measurement on Octet QK (ForteBio) using crude condition medium samples and streptavidin Biosensors coated with biotinylated human WISE. L34, L36, H66 and H127 were four top single-residue mutants. Beneficial heavy chain mutation and light chain mutation were paired in matrix by transient transfection in 293 6E cells to yield further improved double mutants (DM, one mutation in heavy chain and one in light chain). Ten DM mutants were selected. Two best heavy chain mutations (H66 and H127) were combined by overlapping PCR. The resulted heavy chain with double mutations was paired with L34 or L36 to yield two triple mutants (TM1 and TM2).

[3] = molecular target: T3, human WISE N112A (human, UniProt Q6X4U4 24-206); assay: capture ELISA, WISE mutant supernatant (FIG. 25)
T3 construct: Alanine mutant of loop 2, used as supernatant of transiently transfected mammalian cells
T3 chain: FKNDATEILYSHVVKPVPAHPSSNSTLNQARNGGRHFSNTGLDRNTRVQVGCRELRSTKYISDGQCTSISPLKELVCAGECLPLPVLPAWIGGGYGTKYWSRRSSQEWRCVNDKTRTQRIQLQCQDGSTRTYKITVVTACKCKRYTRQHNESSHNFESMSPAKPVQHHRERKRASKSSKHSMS
Method: (§1) Relative capture of individual WISE mutant proteins or wild type proteins by either neutralizing antibodies or non-neutralizing antibodies was compared to assess whether any of these single amino acid changes affects the binding of an antibody to WISE protein. The bound WISE proteins were then detected using HRP-conjugated affinity-purified polyclonal antibody against WISE.
(§2) Purified anti-WISE antibodies (0.5 ug/ml) were added onto high-binding ELISA plates pre-coated with 1 ug/ml of goat anti-mouse IgG Fc (Pierce). Plates were incubated for 1 hour in room temperature. Plates were then washed 4× with Wash Buffer. Subsequently alanine scanned WISE loop-2 mutant supernatants from transient transfection cultures (100× diluted) were added and incubated for 1 hour in room temperature. After 4× wash, rabbit anti-WISE Pab-biotin (50 ng/ml)+NeutrAvidin-HRP (Pierce, Cat #31001) were added onto the plates and incubated for 1 hour in room temperature. Plates were again washed 4× with Wash Buffer. Binding was analyzed using 1-Step Ultra TMB-ELISA substrate (Pierce; Cat #34028) according to the manufacturer's instructions.

[4] = molecular target: T4, human WISE K121A (human, UniProt Q6X4U4 24-206); assay: capture ELISA, WISE mutant supernatant (FIG. 25)
T4 construct: Alanine mutant of loop 2, used as supernatant of transiently transfected mammalian cells
T4 chain: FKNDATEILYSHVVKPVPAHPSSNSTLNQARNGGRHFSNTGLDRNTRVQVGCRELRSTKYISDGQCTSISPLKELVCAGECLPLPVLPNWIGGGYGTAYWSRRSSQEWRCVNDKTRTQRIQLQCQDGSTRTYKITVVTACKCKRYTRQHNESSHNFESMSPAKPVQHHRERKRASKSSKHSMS
Method: as §1, §2

[5] = molecular target: T5, human WISE G115A (human, UniProt Q6X4U4 24-206); assay: capture ELISA, WISE mutant supernatant (FIG. 25)
T5 construct: Alanine mutant of loop 2, used as supernatant of transiently transfected mammalian cells
T5 chain: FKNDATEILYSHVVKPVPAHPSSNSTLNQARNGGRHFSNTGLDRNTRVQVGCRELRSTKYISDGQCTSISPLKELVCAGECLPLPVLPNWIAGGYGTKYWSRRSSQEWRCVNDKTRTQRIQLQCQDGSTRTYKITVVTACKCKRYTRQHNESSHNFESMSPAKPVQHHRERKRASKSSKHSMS
Method: as §1, §2

[6] = molecular target: T6, human WISE I114A (human, UniProt Q6X4U4 24-206); assay: capture ELISA, WISE mutant supernatant (FIG. 25)
T6 construct: Alanine mutant of loop 2, used as supernatant of transiently transfected mammalian cells
T6 chain: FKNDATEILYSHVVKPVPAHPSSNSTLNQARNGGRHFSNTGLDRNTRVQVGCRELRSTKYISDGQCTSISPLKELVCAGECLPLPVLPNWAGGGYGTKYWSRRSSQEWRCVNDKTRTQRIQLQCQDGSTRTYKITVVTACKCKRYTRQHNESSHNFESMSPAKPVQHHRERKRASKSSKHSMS
Method: as §1, §2

[7] = molecular target: T3, human WISE N112A; assay: capture ELISA, WISE mutant supernatant (FIG. 26)
Method: as §1, §2

[8] = molecular target: T6, human WISE I114A; assay: capture ELISA, WISE mutant supernatant (FIG. 26)
Method: as §1, §2

[9] = molecular target: T1, human WISE; assay: capture ELISA binding profile (FIG. 26)
Method: as §1, §2

[10] = molecular target: T5, human WISE G115A; assay: capture ELISA, WISE mutant supernatant (FIG. 23)
Method: as §1, §2

[11] = molecular target: T7, human WISE G117A (human, UniProt Q6X4U4 24-206); assay: capture ELISA, WISE mutant supernatant (FIG. 23)
T7 construct: Alanine mutant of loop 2, used as supernatant of transiently transfected mammalian cells
T7 chain: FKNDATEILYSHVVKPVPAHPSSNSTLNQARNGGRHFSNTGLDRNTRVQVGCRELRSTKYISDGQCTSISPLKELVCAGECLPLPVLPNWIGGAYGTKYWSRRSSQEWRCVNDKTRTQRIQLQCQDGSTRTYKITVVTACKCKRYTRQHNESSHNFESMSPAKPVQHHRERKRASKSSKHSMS
Method: as §1, §2

[12] = molecular target: T1, human WISE; assay: capture ELISA binding profile (FIG. 23)
Method: as §1, §2

[13] = molecular target: T5, human WISE G115A; assay: capture ELISA, WISE mutant supernatant (FIG. 24)
Method: as §1, §2

[14] = molecular target: T7, human WISE G117A; assay: capture ELISA, WISE mutant supernatant (FIG. 24)
Method: as §1, §2

[15] = molecular target: T1, human WISE; assay: capture ELISA binding profile (FIG. 24)
Method: as §1, §2

B1: Ab-AD (antibody, V domains shown)
VH: EVQLQQSGTVLARPGASVKMSCKASGYTFTSYWMHWVKQRPGQGLEWIVAIYPGNSDTNYNQKFKGKAKLTAVTSTSTAYMELNSLTNEDSAVYYCVRGFITAPYFDYWGQGTTLTVSS
VL: DIQMTQSPASLAASVGESITITCQASENIYFSLAWYQQKQGRSPQLLIYHAKSLEDGVPSRFSGSGSGTQYSMKINSMQPEDTATYFCKQAYDHPFTFGTGTKLEMK
notes: Murine monoclonal antibody from hybridoma
B1: binds [1].

B2: D14 IgG2 single-residue mutant L34 (antibody, V domains shown)
VH: EVQLLESGGGLVQPGGSLRLSCAASGFTFSLYTMQWVRQAPGKGLEWVSGIGSSGGGTSYADSVKGRFTISRDNSKNTLYLQMNSLRAEDTAVYYCARGVSSWFFEYWGQGTLVTVSS
VL: QYELTQPPSVAVSPGKTASITCAGDELGGKYAAWYQQKPGQAPVLVVYDDSDRPSGIPERFSGSNSGNTATLTISRVEAGDEADYYCQVWDRSSYHVVFGGGTKLTVLG
notes: L34 is a mutant label, not a residue number; Tested as crude conditioned medium; also called L34(LC CDR1-7G)
B2: binds [2].

B3: D14 IgG2 single-residue mutant H66 (antibody, V domains shown)
VH: EVQLLESGGGLVQPGGSLRLSCAASGFTFSLYTMQWVRQAPGKGLEWVSGIGSSGGPTSYADSVKGRFTISRDNSKNTLYLQMNSLRAEDTAVYYCARGVSSWFFEYWGQGTLVTVSS
VL: QYELTQPPSVAVSPGKTASITCAGDELGNKYAAWYQQKPGQAPVLVVYDDSDRPSGIPERFSGSNSGNTATLTISRVEAGDEADYYCQVWDRSSYHVVFGGGTKLTVLG
notes: H66 is a mutant label, not a residue number; Tested as crude conditioned medium; also called H66(HC CDR2-8P)
B3: binds [2].

B4: D14-L36 (antibody, human IgG2, lambda, V domains shown)
VH: EVQLLESGGGLVQPGGSLRLSCAASGFTFSLYTMQWVRQAPGKGLEWVSGIGSSGGGTSYADSVKGRFTISRDNSKNTLYLQMNSLRAEDTAVYYCARGVSSWFFEYWGQGTLVTVSS
VL: QYELTQPPSVAVSPGKTASITCAGDELGSKYAAWYQQKPGQAPVLVVYDDSDRPSGIPERFSGSNSGNTATLTISRVEAGDEADYYCQVWDRSSYHVVFGGGTKLTVLG
notes: Tested as crude conditioned medium; also called L36(LC CDR1-7S); LC-CDR1-7 N->S
B4: binds [2].

B5: D14 IgG2 single-residue mutant H127 (antibody, V domains shown)
VH: EVQLLESGGGLVQPGGSLRLSCAASGFTFSLYTMQWVRQAPGKGLEWVSGIGSSGGGTSYADSVKGRFTISRDNSKNTLYLQMNSLRAEDTAVYYCARGVSGWFFEYWGQGTLVTVSS
VL: QYELTQPPSVAVSPGKTASITCAGDELGNKYAAWYQQKPGQAPVLVVYDDSDRPSGIPERFSGSNSGNTATLTISRVEAGDEADYYCQVWDRSSYHVVFGGGTKLTVLG
notes: H127 is a mutant label, not a residue number; Tested as crude conditioned medium; also called H127(HC CDR3-4G)
B5: binds [2].

B6: Ab-AA (antibody, V domains shown)
VH: EVQLQQSGAELVRSGASVKLSCTASGFNIKDYYIHWMKQRPEQGLEWIGWIDPENGDTESAPKFQGKATMTADTSSNTAYLHLSSLTFEDTAVYYCNAEGYGSRHWYFDVWGAGTTVTVSS
VL: DIVMSQSPSSLAVSAGEKVTMSCKSSQSLLNSRTRKNYLAWYQQKPGQSPKLLIYWASTRQSGVPDRFTGSGSGTDFTLTISSVQAEDLAVYYCKQSYNLLTFGAGTKLELK
notes: Murine monoclonal antibody purified from hybridoma; also called WISE Loop 2 Mab (Ab-AA)
B6: binds [1]; binds [3]; binds [4]. B6: binds [5]; binds [6].

B7: Ab-AH (antibody, V domains shown)
VH: EVQLQQSGAELVRSGASVRLSCTASGFNIKDFYMHWLKQRPEQGLEWIGWIDPENGDTESAPKFQGKATMTADTSSNTAYLQLSSLTSEDTAVYCCNAEGYDNSHWYFDVWGAGTTVTVSS
VL: DIVMSQSPSSLAVSAGEKVTMSCKSSQSLLNSRTRKNYLAWYQQKPGQSPKLLIYWASTRKSGVPDRFIGSGSGTDFTLTISSVQAEDLAVYYCKQSYNLVTFGAGTKLELK
notes: Murine anti-WISE monoclonal antibody; also called WISE Loop 2 Mab (Ab-AH)
B7: binds [7]; binds [8]; binds [9].

B8: Ab-AI (antibody, V domains shown)
VH: QVTLKESGPGILQPSQTLSLTCSFSGFSLTTSGMGVSWIRQPSGGSLEWLAHIFWDDDKRYNPSLTSRLTISKDASRNQVFLKISSVDTADAATYYCARGGDYYSTGFGFDYWGQGTLVTVSA
VL: DIVVSQAPSSLAVSVGEKIIMSCKSSQSLLHSSNQRNYLAWYQQKPGQSPKLLISWASIRESGVPDRFTGSGSGTDFTLTISSVKTEDLAVYYCHQYYSYSTFGAGTKLELK
notes: Murine anti-WISE monoclonal antibody; also called WISE Loop 2 Mab (Ab-AI)
B8: binds [10]; binds [11]; binds [12].

B9: Ab-AC (antibody, V domains shown)
VH: QVTLKESGPEILQPSQTLSLTCSFSGFSLTTSGMGVSWIRQPSGGSLEWLAHIFWDDDKRYNPSLTSRLTISKDAPRNQVFLKITSVDTADAATYYCARGGDYYSTGFGFDYWGQGTLVTVSA
VL: DIVVSQAPSSLAVSVGEKIIMSCKSSQSLLHSSNRRNYLAWYQQKPGQSPKLLISWASIRESGVPDRFTGSGSGTDFTLTISSVKTEDLAIYYCHQYYTYSTFGAGTKLELK
notes: Murine monoclonal antibody purified from hybridoma; also called WISE Loop 2 Mab (Ab-AC)
B9: binds [13]; binds [14]; binds [15].
